Measurements: article PMC7181197

What was measured:
[1] = target: GFP-G3BP1(S149A) (UniProt Q13283 1-466, S149A); assay: EMSA
[2] = target: GFP-G3BP1(WT);mCherry-Caprin-1 (human?;human?, UniProt Q13283;Q14444 1-466;1-709, |); assay: EMSA
[3] = target: T1, GFP-G3BP1(WT) (UniProt Q13283 1-466); assay: EMSA
[4] = target: T1, GFP-G3BP1(WT); assay: analytical size exclusion chromatography

T1 sequence (Q13283 whole entry): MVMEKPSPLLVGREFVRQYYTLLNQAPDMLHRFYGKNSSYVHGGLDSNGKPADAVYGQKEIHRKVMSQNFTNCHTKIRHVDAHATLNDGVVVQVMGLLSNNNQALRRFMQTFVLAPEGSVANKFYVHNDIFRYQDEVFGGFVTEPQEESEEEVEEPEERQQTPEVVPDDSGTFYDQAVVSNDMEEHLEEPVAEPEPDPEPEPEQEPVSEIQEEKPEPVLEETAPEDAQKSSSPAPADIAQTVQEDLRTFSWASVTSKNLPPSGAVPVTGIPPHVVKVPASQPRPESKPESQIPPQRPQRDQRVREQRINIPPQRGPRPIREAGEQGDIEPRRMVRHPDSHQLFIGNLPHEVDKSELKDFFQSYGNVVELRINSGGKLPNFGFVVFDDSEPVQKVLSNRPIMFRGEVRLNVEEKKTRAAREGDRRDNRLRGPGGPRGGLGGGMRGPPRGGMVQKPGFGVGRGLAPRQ
Sequence of GFP-G3BP1(WT);mCherry-Caprin-1 (Q13283 whole entry, chain 1 of 2): as the sequence (Q13283 whole entry) above
Sequence of GFP-G3BP1(WT);mCherry-Caprin-1 (Q14444 whole entry, chain 2 of 2): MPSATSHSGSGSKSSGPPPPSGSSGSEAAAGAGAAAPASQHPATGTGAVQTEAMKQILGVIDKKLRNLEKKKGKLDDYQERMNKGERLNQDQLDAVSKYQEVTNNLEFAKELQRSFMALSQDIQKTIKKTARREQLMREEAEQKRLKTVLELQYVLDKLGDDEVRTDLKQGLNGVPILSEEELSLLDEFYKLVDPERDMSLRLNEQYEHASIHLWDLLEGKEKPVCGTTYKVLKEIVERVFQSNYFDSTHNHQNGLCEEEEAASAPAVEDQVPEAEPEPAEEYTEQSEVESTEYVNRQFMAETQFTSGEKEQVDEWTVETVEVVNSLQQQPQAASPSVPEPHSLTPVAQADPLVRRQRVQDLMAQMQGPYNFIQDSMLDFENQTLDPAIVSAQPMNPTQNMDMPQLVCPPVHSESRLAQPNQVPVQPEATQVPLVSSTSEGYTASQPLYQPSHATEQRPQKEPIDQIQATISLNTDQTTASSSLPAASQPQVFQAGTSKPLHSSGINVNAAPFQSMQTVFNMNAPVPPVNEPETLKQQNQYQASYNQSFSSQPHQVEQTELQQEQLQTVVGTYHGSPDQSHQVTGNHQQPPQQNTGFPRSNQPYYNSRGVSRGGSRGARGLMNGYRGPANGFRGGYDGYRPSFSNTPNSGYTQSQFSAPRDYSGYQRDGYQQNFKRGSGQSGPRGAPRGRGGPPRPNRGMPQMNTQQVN
Sequence of GFP-G3BP1(S149A) (Q13283 whole entry S149A): as the sequence (Q13283 whole entry) above, with S149A counted along it

| Binder | Kd [1] | binding result [2] | Kd [3] | binding result [4] |
| --- | --- | --- | --- | --- |
| A(60)-Cy5 RNA (ssRNA, 3' pCp-Cy5 ligated (adds one 3' C)) RNA: AAAAAAAAAAAAAAAAAAAAAAAAAAAAAAAAAAAAAAAAAAAAAAAAAAAAAAAAAAAA | ~1.9 µM | binds | ~2 µM |  |
| A(60) RNA unlabeled (ssRNA) RNA: AAAAAAAAAAAAAAAAAAAAAAAAAAAAAAAAAAAAAAAAAAAAAAAAAAAAAAAAAAAA |  |  |  | binds |
